Literature values in article PMC10094977.

Assays:
Cav1.2 IQ domain IQ = Cav1.2 IQ domain IQ (UniProt Q13936); assay: isothermal titration calorimetry
[1] = biological target: Cav1.2 alpha1C IQ domain 1611-1644 (Homo sapiens) (UniProt Q13936); assay: isothermal titration calorimetry
Chain of Cav1.2 alpha1C IQ domain 1611-1644 (Homo sapiens) (Q13936 1611-1644): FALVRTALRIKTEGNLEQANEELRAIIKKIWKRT

Chain of Cav1.2 IQ domain IQ (Q13936 1665-1685): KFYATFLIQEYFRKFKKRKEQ

| Substance | Kd (Cav1.2 IQ domain IQ) [nM] | Kd [1] [nM] |
| --- | --- | --- |
| Ca2+/calmodulin C-lobe C-lobe (from UniProt P0DP23) | 2 | – |
| Calmodulin C-lobe (from UniProt P0DP23) | – | 2 |
